Assay results reported in patent publication US20230036041A1, “SORTILIN BINDING CONJUGATE COMPOUNDS, COMPOSITIONS AND USES THEREOF FOR TREATING CANCER” (THERATECHNOLOGIES INC., priority 2019, published 2023).
Non-standard residues stand in square brackets, D forms with d. No end group written: not given here. Nle = CCCC[C@H](N)C(=O)O

Molecular target: T1, sortilin (Homo sapiens, UniProt Q99523)
T1 construct: endogenous in cells
T1 sequence (Q99523 78-831): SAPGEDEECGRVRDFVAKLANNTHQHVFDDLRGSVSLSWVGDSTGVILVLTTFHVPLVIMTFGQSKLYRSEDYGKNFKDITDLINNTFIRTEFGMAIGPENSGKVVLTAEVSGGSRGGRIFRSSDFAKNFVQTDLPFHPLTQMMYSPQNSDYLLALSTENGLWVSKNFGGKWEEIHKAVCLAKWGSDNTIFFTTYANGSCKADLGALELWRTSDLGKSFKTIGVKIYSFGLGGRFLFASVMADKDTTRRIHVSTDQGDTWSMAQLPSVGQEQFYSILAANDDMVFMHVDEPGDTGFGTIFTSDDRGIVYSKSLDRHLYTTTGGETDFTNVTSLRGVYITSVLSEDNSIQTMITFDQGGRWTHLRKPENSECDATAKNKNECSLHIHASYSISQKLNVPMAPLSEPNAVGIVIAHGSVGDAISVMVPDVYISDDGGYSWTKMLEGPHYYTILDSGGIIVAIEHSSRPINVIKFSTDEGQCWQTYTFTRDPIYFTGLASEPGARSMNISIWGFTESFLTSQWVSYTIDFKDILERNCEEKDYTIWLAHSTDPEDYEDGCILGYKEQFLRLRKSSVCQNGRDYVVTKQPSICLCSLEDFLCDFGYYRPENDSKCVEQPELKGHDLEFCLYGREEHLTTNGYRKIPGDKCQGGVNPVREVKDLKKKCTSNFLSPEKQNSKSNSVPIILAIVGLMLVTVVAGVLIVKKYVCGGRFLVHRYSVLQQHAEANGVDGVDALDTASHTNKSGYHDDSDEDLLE
Assay: uptake of the peptide upon sortilin siRNA
Assay type: cell-based
Settings: FIG. 6
Procedure: In vitro testing of the TH19P01 peptide and the TH1902 conjugate compound was conducted.

Acetyl-GVRAKAGVRN(Nle)FKSESY (Ac-GVRAKAGVRN[Nle]FKSESY) [TH19P01]
uptake of the peptide: inhibited upon sortilin siRNA
